Assay results taken from PMC8479633.

Experiments:
[1] = biological target: wild type full-length SMAD2 (S2FLWT), Q15796; test: SAXS with ensemble optimisation; conditions: remark: other sources report otherwise
[2] = biological target: wild type full-length SMAD2 (S2FLWT), Q15796; test: SAXS with ensemble optimisation; conditions: remark: other sources report otherwise; remark: listed apart in the source

B1: wild type full-length SMAD2 (S2FLWT), Q15796 1-467 (natural protein)
chain: MSSILPFTPPVVKRLLGWKKSAGGSGGAGGGEQNGQEEKWCEKAVKSLVKKLKKTGRLDELEKAITTQNCNTKCVTIPSTCSEIWGLSTPNTIDQWDTTGLYSFSEQTRSLDGRLQVSHRKGLPHVIYCRLWRWPDLHSHHELKAIENCEYAFNLKKDEVCVNPYHYQRVETPVLPPVLVPRHTEILTELPPLDDYTHSIPENTNFPAGIEPQSNYIPETPPPGYISEDGETSDQQLNQSMDTGSPAELSPTTLSPVNHSLDLQPVTYSEPAFWCSIAYYELNQRVGETFHASQPSLTVDGFTDPSNSERFCLGLLSNVNRNATVEMTRRHIGRGVRLYYIGGEVFAECLSDSAIFVQSPNCNQRYGWHPATVCKIPPGCNLKIFNNQEFAALLAQSVNQGFEAVYQLTRMCTIRMSFVKGWGAEYRRQTVTSTPCWIELHLNGPLQWLDKVLTQMGSPSVRCSSMS
percent of the population as trimer [1]: 16.4% | percent of the population as dimer [2]: 18% | percent of the population as trimer [2]: 1%
